Target: T1, CusB (E. coli, UniProt P77239 29-407)
T1 sequence (looked up): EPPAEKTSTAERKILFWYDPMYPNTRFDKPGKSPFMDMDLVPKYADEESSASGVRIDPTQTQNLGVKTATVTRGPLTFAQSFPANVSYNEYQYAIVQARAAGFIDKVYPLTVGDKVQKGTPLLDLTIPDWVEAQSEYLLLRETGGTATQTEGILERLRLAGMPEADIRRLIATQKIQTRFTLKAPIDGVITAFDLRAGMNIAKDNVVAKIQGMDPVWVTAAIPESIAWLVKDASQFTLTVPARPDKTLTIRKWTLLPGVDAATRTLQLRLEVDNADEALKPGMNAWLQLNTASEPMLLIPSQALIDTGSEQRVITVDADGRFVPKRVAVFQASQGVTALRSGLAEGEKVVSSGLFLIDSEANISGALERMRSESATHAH
Test: NMR 15N relaxation

Kd: ~160 µM
B1: CusF (natural protein, E. coli, UniProt P77214 22-110, looked up)
chain: ANEHHHETMSEAQPQVISATGVVKGIDLESKKITIHHDPIAAVNWPEMTMRFTITPQTKMSEIKTGDKVAFNFVQQGNLSLLQDIKVSQ

From PMC3072847 (Biochemistry, 2011)
